{"source": "patent US20030124568A1", "about": "(published 2003)", "assay_in_all_cases": "yeast two-hybrid cotransformation in Y190", "key": {"[1]": {"molecular_target": "T1, amino terminus of the GIRK1 subunit cloned into the vector pDBLeu (rat, UniProt P04386 1-147; P63251 1-80, limits assumed)", "T1 construct": "Yeast two-hybrid bait with the GIRK1 N terminus alone; also called N terminus of GIRK1", "from_the_text": "(§1) The DNA (accession no.: U09243, EMBL datebase) coding for the carboxyl terminus or the amino terminus of the GIRK1 subunit was amplified by PCR starting from the plasmid “GIRK1NC-bait” using the primers GGIRK1-4s (5′-[…]-3′) and GGIRK1-as (5′-[…]-3′) or GIRK1-NC-s (5′ -[…]-3′) and GIRK1-N-as (5′-[…]-3′) and cloned into the vector pDBLeu. Each of the plasmids was cotransformed with the pPC86 plasmid. GIRK1NCprey2 (SEQ ID NO: 1 nucleotides 1011-1349) or with the plasmid GIRK1NCprey3 (SEQ ID NO: 1, nucleotides 500-1193) into the yeast strain Y190. […] It is evident that the interaction with Mogli takes place only in the presence of both intracellular portions of GIRK1."}, "[2]": {"molecular_target": "T2, carboxyl terminus of the GIRK1 subunit cloned into the vector pDBLeu (rat, UniProt P04386 1-147; P63251 180-501, limits assumed)", "T2 construct": "Yeast two-hybrid bait with the GIRK1 C terminus alone; also called C terminus of GIRK1", "from_the_text": "as §1"}, "[3]": {"molecular_target": "T3, GIRK1-NC-bait (GAL4-DNA binding domain fused to the N terminus of the GIRK1 subunit, a linker sequence GSSGSS … (rat, UniProt P04386 1-147; P63251 1-80; P63251 180-501, limits assumed)", "T3 construct": "Yeast two-hybrid bait in pDBLeu, expressed in yeast strain Y190", "from_the_text": "as §1"}}, "note": "Ends that are not written are not given here.", "data": [{"binder": "GIRK1NCprey3 (nucleotides 500-1193 of SEQ ID NO: 1, fragment of rat Mogli, in pPC86) (other, Residue range converted from the printed nucleotide range; also called prey plasmid; Mogli fragment) RIGMVGEGNIQSARYKKESKGGIIKPGSEADFSSSSSTGSISAPEVHMSTTGNKRASFSRNRGPHGRSNGAPSHKSGSSPPSPREKDLVSMLCRNPLSPSNIHPSYAPSSPSSSNSGSYKGSDCSPVMRRSGRYMSCGENHGVKPPNPEQYLTPLQQKEVTVRHLRTKLKESERRLHERESEIMELKSQLARMREDWIEEECHRVEAQLALKEARKEIKQLKQVIETMRS", "values": [{"measurement": "binding result", "setting": "[1]", "value": "no binding"}, {"measurement": "binding result", "setting": "[2]", "value": "no binding"}]}, {"binder": "nucleotide region 1011-1193 of SEQ ID NO: 1 (overlap of GIRK1NCprey2 and GIRK1NCprey3) cloned into the plasmid pPC86 (other, not shown: small tags and cut ends, also: fused to GAL4 activation domain with pPC86 linker and tail residues, Residue range converted from the printed nucleotide range; also called 1NCprey23o construct) ESERRLHERESEIMELKSQLARMREDWIEEECHRVEAQLALKEARKEIKQLKQVIETMRS", "values": [{"measurement": "binding result", "setting": "[3]", "value": "no binding"}]}, {"binder": "GIRK1NCprey2 (nucleotides 1011-1349 of SEQ ID NO: 1, fragment of rat Mogli, in pPC86) (other, Residue range converted from the printed nucleotide range; also called prey plasmid; Mogli fragment) ESERRLHERESEIMELKSQLARMREDWIEEECHRVEAQLALKEARKEIKQLKQVIETMRSSLADKDKGIQKYFVDINIQNKKLESLLQSMEMAHNSSLRDELCLDFSFDSPE", "values": [{"measurement": "binding result", "setting": "[1]", "value": "no binding"}, {"measurement": "binding result", "setting": "[2]", "value": "no binding"}]}]}
